B1: Serine/threonine-protein kinase SRK2E (Arabidopsis thaliana (Mouse-ear cress)), Q940H6 (parent)
chain: MDRPAVSGPMDLPIMHDSDRYELVKDIGSGNFGVARLMRDKQSNELVAVKYIERGEKIDENVKREIINHRSLRHPNIVRFKEVILTPTHLAIVMEYASGGELFERICNAGRFSEDEARFFFQQLISGVSYCHAMQVCHRDLKLENTLLDGSPAPRLKICDFGYSKSSVLHSQPKSTVGTPAYIAPEVLLKKEYDGKVADVWSCGVTLYVMLVGAYPFEDPEEPKNFRKTIHRILNVQYAIPDYVHISPECRHLISRIFVADPAKRISIPEIRNHEWFLKNLPADLMNDNTMTTQFDESDQPGQSIEEIMQIIAEATVPPAGTQNLNHYLTGSLDIDDDMEEDLESDLDDLDIDSSGEIVYAM
partner: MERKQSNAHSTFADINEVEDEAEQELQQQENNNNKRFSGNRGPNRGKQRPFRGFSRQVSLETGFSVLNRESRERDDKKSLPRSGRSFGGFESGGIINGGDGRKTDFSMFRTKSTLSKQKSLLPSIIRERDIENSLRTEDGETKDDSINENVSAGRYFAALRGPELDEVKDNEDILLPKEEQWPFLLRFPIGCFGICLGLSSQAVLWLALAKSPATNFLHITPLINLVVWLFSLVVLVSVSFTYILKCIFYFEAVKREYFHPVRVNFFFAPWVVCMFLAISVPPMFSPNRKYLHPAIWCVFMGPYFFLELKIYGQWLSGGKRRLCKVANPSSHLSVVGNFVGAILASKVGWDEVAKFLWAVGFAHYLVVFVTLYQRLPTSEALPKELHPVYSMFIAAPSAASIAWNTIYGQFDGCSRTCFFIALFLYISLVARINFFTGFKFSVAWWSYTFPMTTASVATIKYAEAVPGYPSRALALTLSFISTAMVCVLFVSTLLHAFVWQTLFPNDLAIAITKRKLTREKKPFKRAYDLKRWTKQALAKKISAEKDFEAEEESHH

Variants of: B1
Conditions: with slac1_arath SLAC1, Q9LD83

| Variant | effect of a mutation on the interaction |
| --- | --- |
| D140A | disrupting interaction |
